From PMC11371216, “Structural insight into the DNMT1 reaction cycle by cryo-electron microscopy” come the findings set out here.

This series addresses DNMT1 (human, UniProt P26358 1-1616). The experiment in a line: EMSA; SAM 20-fold excess + GSK3852279B 5-fold excess; no substantial change in binding; EMSA: 25 mM Tris-HCl pH 7.5, 40 mM NaCl, 20% glycerol, 1 mM DTT, 0.5 mM MgCl2, overnight at room temperature; covalent assay: 25 mM Tris-HCl pH 7.5, 20 mM KCl. The following applies: protein: recombinant; tags: N-terminal Flag-6xHis-TEV site; blunt.

Sequence of DNMT1 (P26358 whole entry): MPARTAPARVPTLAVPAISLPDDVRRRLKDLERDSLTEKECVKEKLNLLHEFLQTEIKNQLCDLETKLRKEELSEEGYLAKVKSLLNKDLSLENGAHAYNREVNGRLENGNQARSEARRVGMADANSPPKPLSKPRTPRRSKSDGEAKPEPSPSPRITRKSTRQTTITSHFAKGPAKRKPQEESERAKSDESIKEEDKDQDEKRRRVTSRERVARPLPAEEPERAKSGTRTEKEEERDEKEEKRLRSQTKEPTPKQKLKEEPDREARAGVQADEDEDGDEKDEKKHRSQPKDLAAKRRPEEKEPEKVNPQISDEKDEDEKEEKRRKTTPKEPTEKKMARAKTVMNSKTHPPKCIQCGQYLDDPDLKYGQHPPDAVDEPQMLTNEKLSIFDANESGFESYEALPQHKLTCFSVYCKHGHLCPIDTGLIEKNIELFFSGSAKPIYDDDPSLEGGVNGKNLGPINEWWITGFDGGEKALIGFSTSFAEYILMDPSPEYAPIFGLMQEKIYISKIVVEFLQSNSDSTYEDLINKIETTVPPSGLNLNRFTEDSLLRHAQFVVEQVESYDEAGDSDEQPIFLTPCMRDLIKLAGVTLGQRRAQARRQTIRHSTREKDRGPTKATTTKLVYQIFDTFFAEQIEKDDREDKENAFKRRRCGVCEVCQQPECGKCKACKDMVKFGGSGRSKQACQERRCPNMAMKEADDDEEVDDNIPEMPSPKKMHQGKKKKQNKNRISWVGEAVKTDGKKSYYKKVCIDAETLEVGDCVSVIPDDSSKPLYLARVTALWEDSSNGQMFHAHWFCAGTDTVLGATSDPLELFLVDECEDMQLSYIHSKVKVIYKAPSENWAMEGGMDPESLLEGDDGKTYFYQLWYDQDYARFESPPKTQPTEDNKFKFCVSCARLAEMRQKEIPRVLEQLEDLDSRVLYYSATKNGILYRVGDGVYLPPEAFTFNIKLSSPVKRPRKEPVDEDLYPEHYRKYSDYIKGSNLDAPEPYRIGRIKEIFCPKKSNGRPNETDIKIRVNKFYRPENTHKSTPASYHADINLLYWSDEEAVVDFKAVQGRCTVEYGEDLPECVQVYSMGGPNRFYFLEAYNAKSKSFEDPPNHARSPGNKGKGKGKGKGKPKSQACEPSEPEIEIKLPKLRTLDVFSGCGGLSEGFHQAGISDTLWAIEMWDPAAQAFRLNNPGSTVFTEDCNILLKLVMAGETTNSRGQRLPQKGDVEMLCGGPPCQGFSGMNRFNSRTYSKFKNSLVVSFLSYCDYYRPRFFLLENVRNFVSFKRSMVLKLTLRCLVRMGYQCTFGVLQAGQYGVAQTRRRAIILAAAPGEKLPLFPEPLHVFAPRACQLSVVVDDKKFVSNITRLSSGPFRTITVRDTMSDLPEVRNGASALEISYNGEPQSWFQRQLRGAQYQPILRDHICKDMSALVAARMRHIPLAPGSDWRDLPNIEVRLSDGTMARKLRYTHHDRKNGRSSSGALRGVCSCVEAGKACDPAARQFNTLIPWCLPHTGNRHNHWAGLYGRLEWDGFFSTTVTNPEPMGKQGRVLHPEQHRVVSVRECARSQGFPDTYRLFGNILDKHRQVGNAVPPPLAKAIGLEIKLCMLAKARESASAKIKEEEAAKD

B1: 26 bp hemi-methylated DNA (dsDNA)
DNA 1: TGGAGTCGAGGCCGCCTGCGCAGGAC
DNA 2: GTCCTGCGCAGGCGGCCTCGACTCCA
modifications: 5-methyl-dC at position 13 of strand 1
As for B1, the binding result is listed as “binds”.
